The assay has as its target T1, Mycobacterium tuberculosis cAMP receptor protein (Rv3676) (Mycobacterium tuberculosis), P9WMH3.
T1 chain: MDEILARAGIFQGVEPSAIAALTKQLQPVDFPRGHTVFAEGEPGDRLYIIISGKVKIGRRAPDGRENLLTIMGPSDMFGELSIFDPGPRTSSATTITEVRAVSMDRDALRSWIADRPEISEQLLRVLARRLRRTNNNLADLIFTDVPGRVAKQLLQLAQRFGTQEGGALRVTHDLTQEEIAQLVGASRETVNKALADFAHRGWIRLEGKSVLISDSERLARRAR
The experiment in a line: cross-linking. The conditions noted are these: remark: other sources report otherwise.

The source of these data is article PMC2844151.

B1: Mycobacterium tuberculosis cAMP receptor protein (Rv3676), P9WMH3 1-224 (natural protein)
chain: T1 chain
Molecule B1 showed a stoichiometry N of 2.

One may read the stoichiometry N as the number of molecules, sites or subunits per partner or assembly.
